6 molecules from patent publication US20220249683A1 (MAGENTA THERAPEUTICS, published 2022) can be followed below.

The target in test [1] is T1, human CD5 on cells (human, UniProt P06127 25-495).
T1 construct: Endogenous CD5 on MOLT-4 human T lymphoblast cells or primary human T cells; The cell type is named under assay; also called CD5 on MOLT-4 cells; CD5 on primary human T-cells
T1 sequence (looked up): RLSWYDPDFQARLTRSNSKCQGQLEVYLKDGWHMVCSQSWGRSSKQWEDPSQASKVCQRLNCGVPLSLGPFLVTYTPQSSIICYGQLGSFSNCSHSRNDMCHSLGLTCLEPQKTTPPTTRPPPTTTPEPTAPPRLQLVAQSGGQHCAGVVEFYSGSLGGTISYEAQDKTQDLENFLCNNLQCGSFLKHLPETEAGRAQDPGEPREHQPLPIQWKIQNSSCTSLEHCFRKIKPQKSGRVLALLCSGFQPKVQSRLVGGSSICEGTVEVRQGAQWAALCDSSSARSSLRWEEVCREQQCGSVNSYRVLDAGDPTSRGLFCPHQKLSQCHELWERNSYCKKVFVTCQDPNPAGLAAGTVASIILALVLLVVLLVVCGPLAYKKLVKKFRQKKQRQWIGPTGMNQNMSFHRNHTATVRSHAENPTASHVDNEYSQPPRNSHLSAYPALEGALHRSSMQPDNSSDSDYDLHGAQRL
As to the kind of experiment: flow cytometry on MOLT-4 cells, antibody titration 2 h at 4 C, anti-mouse AF488 secondary, geometric MFI. (In flow cytometry, cells or beads pass a laser one at a time.)

In test [2] the target is T1, human CD5 on cells. As to the kind of experiment: flow cytometry on MOLT-4 cells, antibody titration, anti-mouse AF488 secondary, 4 C.
For test [3], the target named is T2, human CD2 on cells (human, UniProt P06729 25-351).
T2 construct: Endogenous CD2 on MOLT-4 human T lymphoblast cells, primary human T cells or primary human NK cells; The cell type is named under assay; also called CD2 on MOLT-4 cells; CD2 on primary human T-cells
T2 sequence: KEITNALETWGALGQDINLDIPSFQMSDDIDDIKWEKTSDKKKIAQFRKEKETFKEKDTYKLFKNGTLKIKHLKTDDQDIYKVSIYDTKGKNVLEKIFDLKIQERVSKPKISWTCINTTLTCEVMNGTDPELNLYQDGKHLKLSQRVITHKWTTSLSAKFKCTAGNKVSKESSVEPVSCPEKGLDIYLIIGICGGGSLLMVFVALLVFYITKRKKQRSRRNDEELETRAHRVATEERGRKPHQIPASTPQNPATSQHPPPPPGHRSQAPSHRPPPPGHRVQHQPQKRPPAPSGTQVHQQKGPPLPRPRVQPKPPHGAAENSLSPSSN
The test is described as above.

For test [4], the target named is T2, human CD2 on cells. In words: flow cytometry on primary human T-cells, antibody titration 2 h at 37 C, AF488 secondary, MFI.
Procedure: Primary human T-cells were plated at 8×10⁴ cells/well and stained with a titration of the murine anti-CD23 antibody RPA-2.10 for 2 hours at 37° C. Secondary anti-mouse or anti-human AF488 stain, relative to primary antibody, at a constant amount, was added for 30 minutes at 4° C. After washing, plates were run on a flow cytometer and binding of the indicated antibody (and the negative control, i.e., mIgG1 or hIgG1) was determined based on geometric mean fluorescence intensity in the AF488 channel.
Test [5] deals with T3, purified human CD2 ectodomain (human, UniProt P06729 25-209).
T3 construct: Bought reagent; also called Sigma Aldrich Catalog #5086
T3 sequence: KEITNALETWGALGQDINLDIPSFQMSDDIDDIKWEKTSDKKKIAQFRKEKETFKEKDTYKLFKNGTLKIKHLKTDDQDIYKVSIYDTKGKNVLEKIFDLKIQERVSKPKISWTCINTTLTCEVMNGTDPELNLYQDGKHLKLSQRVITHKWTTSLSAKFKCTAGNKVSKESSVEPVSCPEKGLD
As to the kind of experiment: BLI (Octet Red96), IgG on anti-murine Fc biosensor, 50 nM human CD2 ectodomain, 1:1 model, apparent monovalent affinity. (BLI is a label-free optical method that tracks binding on a fibre tip over time.)

Test [6] deals with T2, human CD2 on cells. As to the kind of experiment: flow cytometry on primary human T-cells, antibody titration 2 h at 37 C, AF488 secondary.
In test [7] the target is T3, purified human CD2 ectodomain. In words: BLI (Octet Red96), IgG on anti-murine Fc biosensor, 50 nM human CD2 ectodomain, 1:1 model.
Test [8] addresses T4, purified human CD5 ectodomain (human, UniProt P06127 25-372).
T4 sequence (looked up): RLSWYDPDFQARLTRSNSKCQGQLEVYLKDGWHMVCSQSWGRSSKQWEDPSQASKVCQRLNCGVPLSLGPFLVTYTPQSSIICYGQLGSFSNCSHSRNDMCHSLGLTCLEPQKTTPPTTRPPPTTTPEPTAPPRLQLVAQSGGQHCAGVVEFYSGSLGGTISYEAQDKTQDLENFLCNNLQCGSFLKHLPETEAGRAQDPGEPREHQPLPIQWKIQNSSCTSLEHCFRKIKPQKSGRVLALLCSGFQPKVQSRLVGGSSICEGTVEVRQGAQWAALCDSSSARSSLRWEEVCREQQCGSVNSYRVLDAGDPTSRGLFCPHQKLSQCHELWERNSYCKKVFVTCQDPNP
In words: BLI (Octet Red96), IgG on anti-human Fc biosensor, 50 nM human CD5 ectodomain.
Procedure: To determine the binding characteristics of anti-CD5 antibody 5D7 hIgG1, antibody binding studies were performed at 25 degrees celsius in 1×PBS supplemented with 0.1% w/v bovine serum albumin with a Pall ForteBio Octet Red96 using biolayer interferometry (BLI).

The target of test [9] is T1, human CD5 on cells. As to the kind of experiment: flow cytometry on primary human T-cells, antibody titration 2 h at 37 C, AF488 secondary, MFI.
Procedure: Secondary anti-mouse AF488 stain, at a constant amount, was added for 30 minutes at 4° C.
In test [10] the target is T1, human CD5 on cells. In words: flow cytometry on primary human T-cells, antibody titration 2 h at 37 C, AF488 secondary.
Test [11] deals with T3, purified human CD2 ectodomain. As to the kind of experiment: BLI (Octet Red96), IgG on anti-human Fc biosensor, 50 nM human CD2 ectodomain, 1:1 model.
For test [12] the target is unchanged. As to the kind of experiment: BLI (Octet Red96), IgG on anti-human Fc biosensor, 50 nM human CD2 ectodomain, 1:1 model, apparent monovalent affinity.

Broadly, the EC50 (read off the curve) is the concentration giving half of the maximal effect. Broadly, the EC50 is the concentration giving half of the maximal effect. “murine anti-CD5 antibody UCHT2 (BioLegend)”: the EC50 (read off the curve) in test [1] was 0.3 nM. This molecule came in with an EC50 in [2] of 0.354 nM.
Taken in the same sequence, the figures for “murine anti-CD5 antibody CRIS-1 (Novus Biologicals)” were 0.04 nM and 0.043 nM.
Turning to murine anti-CD2 antibody TS1/8, the EC50 in test [3] amounted to 0.125 nM.

B1: anti-CD2 antibody RPA-2.10 mIgG1 (antibody, V domains shown)
VH: EVKLVESGGGLVKPGGSLKLSCAASGFTFSSYDMSWVRQTPEKRLEWVASISGGGFLYYLDSVKGRFTISRDNARNILYLHMTSLRSEDTAMYYCARSSYGEIMDYWGQGTSVTVSS
VL: DILLTQSPAILSVSPGERVSFSCRASQRIGTSIHWYQQRTTGSPRLLIKYASESISGIPSRFSGSGSGTDFTLSINSVESEDVADYYCQQSHGWPFTFGGGTKLEIER
notes: Murine IgG1; also called mRPA-2.10; murine anti-CD2 antibody RPA-2.10
In general, koff refers to a measure of how fast the partners let go of each other. A higher koff goes with fast dissociation. By kon is commonly meant the rate constant with which the complex forms. Read a high kon as fast association. Regarding B1, in [4], the “EC50 (read off the curve)” value is roughly 0.03 nM. Besides, in test [5], the Kd came to 2 nM. The molecule further displayed a half-maximal effective concentration (EC50) in test [6] of 0.00184 nM. Besides, in test [7], the koff is 0.000172 s⁻¹ and the kon was 86000 M⁻¹ s⁻¹. In [3], this molecule yielded a 50% effective concentration (EC50) of 0.16 nM.

B2: anti-CD5 antibody 5D7 hIgG1 (humanized version of murine antibody 5D7) (antibody, V domains shown)
VH: QVTLKESGPVLVKPTETLTLTCTFSGFSLSTSGMGVGWIRQAPGKGLEWVAHIWWDDDVYYNPSLKSRLTITKDASKDQVSLKLSSVTAADTAVYYCVRRRATGTGFDYWGQGTLVTVSS
VL: NIVMTQSPSSLSASVGDRVTITCQASQDVGTAVAWYQQKPDQSPKLLIYWTSTRHTGVPDRFTGSGSGTDFTLTISSLQPEDIATYFCHQYNSYNTFGSGTKLEIK
notes: Tested as human IgG1 (hIgG1); also called anti-CD5 5D7 antibody; humanized 5D7
In test [8], B2 had a Kd of 0.141 nM, a koff of 3.36e-05 s⁻¹ and a kon of 239000 M⁻¹ s⁻¹. Besides, the “EC50 (read off the curve)” value in test [9] was roughly 0.03 nM. In test [10], a half-maximal response (EC50) required 0.003 nM.

B3: anti-CD2 antibody Ab1 hIgG1 (antibody, V domains shown)
VH: QVQLVQSGAEVKKPGASVKVSCKASGYTFTEYYMYWVRQAPGQGLELMGRIDPEDGSIDYVEKFKKKVTLTADTSSSTAYMELSSLTSDDTAVYYCARGKFNYRFAYWGQGTLVTVSS
VL: DVVMTQSPPSLLVTLGQPASISCRSSQSLLHSSGNTYLNWLLQRPGQSPQPLIYLVSKLESGVPDRFSGSGSGTDFTLKISGVEAEDVGVYYCMQFTHYPYTFGQGTKLEIK
notes: Tested as human IgG1 (hIgG1)
Regarding B3, in test [11], the koff stood at 0.000289 s⁻¹ and the kon worked out at 136000 M⁻¹ s⁻¹. The Kd in [12] stood at 2.12 nM.
